One data set concerns HEK293-F cells. The data set can be described thus: Luciferase expression from hypoxia-inducible promoters in transiently transfected HEK293-F cells. The format is cell-based, human. The following applies: cells placed in hypoxia at 0 hours; FIG. 3. The method, then:
40 ml of cells are grown in a 250 ml vented Erlenmeyer flask (Sigma-Aldrich CLS431144) at 37° C., 20% O2, 8% CO2 with agitation at 100 rpm. Cells are seeded as described in the manufacturer's instructions (300,000 cells/ml). HEK293-F are obtained from Thermofisher, R79007.
One day before transfection, the cells are counted using a haemocytometer and split to 500,000 cells/ml.
On the day of transfection, the cells are seeded to 1,000,000 cells/ml in 500 µl of appropriate medium (Freestyle 293 expression medium, 12338002) in a 24 well plate. […] of DNA per well is then added to 10 μl of OptiMem medium (Thermofisher; 11058021) and incubated for 5 minutes at room temperature.
Concurrently, 0.625 μl of Max reagent (Thermofisher, 16447100) is made up to […] by addition of OptiMem and incubated for 5 minutes at room temperature. After this incubation, both mixes are added to the same tube and incubated at room temperature for 25-30 minutes. The DNA/Max reagent mix (20 μl/well) is then added directly to the cells and the cells incubated at 37° C., 8% CO2 with agitation at 100 rpm. […]
After transfection the cells are incubated for 24 hrs in normoxia conditions (20% oxygen) before being switched to a gas mix of 5% oxygen, 10% carbon dioxide and 85% nitrogen (hypoxia). […] Induction of the promoters is assessed by using luciferase activity after 3, 5 and 24 hrs in hypoxia.
(§1) Luciferase activity is measured using LARII (Dual Luciferase Reporter 1000 assay system, Promega, E1980).
Media is removed from the cells at the respective time point (0, 3, 5, 24 hrs after induction). […] 10 μl of supernatant is pipetted into white 96-well plate and luminescence measured by addition of 50 μl of LARII substrate.
β-galactosidase activity is measured as per manufacturer's instructions (Mammalian PGalactosidase Assay Kit, 75707/75710, Thermo Scientific) using 25 µl of lysate. […] The mixture is incubated at 37° C. for 30 min and absorbance measured at 405 nm.
(§2) Luciferase readouts are normalised to β-galactosidase to produce normalised relative luminometer units (RLUs).

The test system of the next data set is HEK293-T cells. The data set can be described thus: Luciferase expression from hypoxia-inducible promoters in transiently transfected HEK293-T cells. The conditions noted are these: for luciferase activity in normoxia: normoxic conditions, FIG. 4. The format is cell-based, human. The method, then: HEK293-T are seeded at a density of 20%. Once they reached a confluence between 60 and 80%, the media is changed with DMEM (#21885-025—Thermo Scientific) supplemented with 10% FBS (Gibco, 26140). After 3 hours, the cells are transfected by a transfection mix. The transfection mix is prepared by adding DNA (2 μg per 6 well plate) and PEI 25 kDA (#23966-1—Polyscience) in a ratio of 1:3 in sterile DPBS (#14190169—ThermoFisher Scientific). After mixing, the transfection mix is incubated at room temperature for 30 minutes and then added directly to the cells. After 16 to 18 h post transfection, the media is changed to DMEM+2% FBS. The transfected DNA is one of the vectors where the promoter construct (Synp-RTV-016, Synp-HYBT and Synp-HV3C) or a control promoter (CMV-IE) are used to drive luciferase expression and P-galactosidase containing pcDNA6 plasmid. The β-galactosidase containing plasmid is used as internal control for transfection efficiency (Thermofisher, V22020).
After transfection the cells are incubated for 24 hrs in normoxic conditions (20% oxygen). Induction of the promoters is assessed by using luciferase activity after 24 hrs in normoxia or hypoxia (5% oxygen, 10% carbon dioxide and 85% nitrogen). Hypoxia is achieved by gas displacement in a sealed hypoxia chamber.
as §1
Media is removed from the cells at the respective time point (0, 3, 5, 24 hrs after induction). The cells are washed once in 300 μl of DPBS. Cells are lysed by adding 100 μl of passive lysis buffer to the cells and incubation with rocking for 15 minutes. The cell debris is pelleted by centrifugation of the plate at max speed in a benchtop centrifuge for 1 min. 10 μl of supernatant is pipetted into white 96-well plate and luminescence measured by addition of 50 μl of LARII substrate.
β-galactosidase activity is measured as per manufacturer's instructions (Mammalian PGalactosidase Assay Kit, 75707/75710, Thermo Scientific) using 25 µl of lysate. 25 μl of lysate is transferred into a microplate well and mixed with 25 μl of β-galactosidase Assay Reagent, equilibrated to room temperature. The mixture is incubated at 37° C. for 30 min and absorbance measured at 405 nm.
as §2

In another data set the test system is Huh7 (liver). The data set can be described thus: Luciferase expression from forskolin-inducible promoters in Huh7 cells. The data set is classed as cell-based, human. The following applies: for luciferase activity after induction, promoter expressed from an AAV vector: 20 μM forskolin or 7.2 μM NKH477; for luciferase activity after induction, promoter expressed from an AAV vector / luciferase activity without induction, promoter expressed from an AAV vector: FIG. 8; for luciferase activity after induction: 20 μM forskolin; for luciferase activity after induction / luciferase activity without induction: FIG. 6; for luciferase activity without induction, promoter expressed from an AAV vector: AAV vector containing ITRs. The method, then:
Luciferase activity was measured without induction and after induction with 20 μM forskolin or 7.2 μM NKH477.

The test system of a further data set is C2C12 (muscle) cells. The data set can be described thus: Luciferase expression from forskolin-inducible promoter in C2C12 cells. The data set is classed as cell-based, mouse. The conditions noted are these: FIG. 7. The text has this:
CMV-IE expression was not analyzed under induced conditions, and thus no result is shown in the graph.

B1: Synp-RTV-016: synthetic hypoxia-inducible promoter, SEQ ID NO: 1; 6 HRE2 and CMV minimal promoter (nucleic acid)
DNA: CTGCACGTAGATGATGCGTAGCTAGTAGTCTGCACGTAGATGATGCGTAGCTAGTAGTCTGCACGTAGATGATGCGTAGCTAGTAGTCTGCACGTAGATGATGCGTAGCTAGTAGTCTGCACGTAGATGATGCGTAGCTAGTAGTCTGCACGTAGTAGTCGTATGCTGATGCGCAGTTAGCGTAGCTGAGGTACCGTCGACGATATCGGATCCAGGTCTATATAAGCAGAGCTCGTTTAGTGAACCGTCAGATCGCCTAGATACGCCATCCACGCTGTTTTGACCTCCATAGAAGATCGCCACC
For the molecule B1, the “luciferase activity over time in hypoxia” value in the data set on HEK293-F cells is recorded as “increase in luciferase activity with time”. In addition, in the data set with HEK293-T cells, the “luciferase expression / inducibility after 24 hours in hypoxia versus normoxia” value is “lowest” and the “luciferase activity in normoxia” value was “almost no luciferase activity”.

B2: Synp-HYBT: synthetic hypoxia-inducible promoter, SEQ ID NO: 2; 4 HRE3 and a YB-TATA minimal promoter (nucleic acid)
DNA: ACCTTGAGTACGTGCGTCTCTGCACGTATGGCGATTAAGACCTTGAGTACGTGCGTCTCTGCACGTATGGCGATTAAGACCTTGAGTACGTGCGTCTCTGCACGTATGGCGATTAAGACCTTGAGTACGTGCGTCTCTGCACGTATGGCGATTAATCCATATGCTCTAGAGGGTATATAATGGGGGCCA
Regarding B2, the “luciferase activity over time in hypoxia” value with HEK293-F cells is given as “increase in luciferase activity with time”. In the data set on HEK293-T cells, the “luciferase expression / inducibility after 24 hours in hypoxia versus normoxia” value is on record as “induced to a varying level” and the “luciferase activity in normoxia” value is reported as “almost no luciferase activity”.

B3: Synp-RTV-019: synthetic forskolin-inducible promoter, SEQ ID NO: 5; 3×ATF6, 4× AP1 and 3× HIF TFBS and a CMV-MP (nucleic acid)
DNA: TGACGTGCTGATGATGCGTAGCTAGTAGTTGACGTGCTGATGATGCGTAGCTAGTAGTTGACGTGCTGATGATGCGTAGCTAGTAGTTGAGTCAGATGATGCGTAGCTAGTAGTTGAGTCAGATGATGCGTAGCTAGTAGTTGAGTCAGATGATGCGTAGCTAGTAGTTGAGTCAGATGATGCGTAGCTAGTAGTCTGCACGTAGATGATGCGTAGCTAGTAGTCTGCACGTAGATGATGCGTAGCTAGTAGTCTGCACGTAGATGATGCGTAGCTAGTAGTGCAGTTAGCGTAGCTGAGGTACCGTCGACGATATCGGATCCAGGTCTATATAAGCAGAGCTCGTTTAGTGAACCGTCAGATCGCCTAGATACGCCATCCACGCTGTTTTGACCTCCATAGAAGATCGCCACC
On to B3, for which, in the data set on Huh7 (liver), the “luciferase activity after induction, promoter expressed from an AAV vector” value is reported as “high activity”; the “luciferase activity after induction” value is on record as “high activity”; the “luciferase activity without induction, promoter expressed from an AAV vector” value is “low background activity”; the “luciferase activity without induction” value is on record as “low background activity”. Further, the “luciferase activity after induction” value in the data set on C2C12 (muscle) cells (20 μM forskolin) is on record as “high activity”. For the same molecule, in the data set on C2C12 (muscle) cells, the “luciferase activity without induction” value was “low background activity”.

B4: Synp-HV3C: synthetic hypoxia-inducible promoter, SEQ ID NO: 3; 4 HRE3 and CMV minimal promoter (nucleic acid)
DNA: ACCTTGAGTACGTGCGTCTCTGCACGTATGGCGATTAAGACCTTGAGTACGTGCGTCTCTGCACGTATGGCGATTAAGACCTTGAGTACGTGCGTCTCTGCACGTATGGCGATTAAGACCTTGAGTACGTGCGTCTCTGCACGTATGGCGATTAATCCATATGCAGGTCTATATAAGCAGAGCTCGTTTAGTGAACCGTCAGATCGCCTAGATACGCCATCCACGCTGTTTTGACCTCCATAGAAGATCGCCACC
For B4, the “luciferase activity over time in hypoxia” value with HEK293-F cells is listed as “increase in luciferase activity with time”. Further, in the data set on HEK293-T cells, the “luciferase expression / inducibility after 24 hours in hypoxia versus normoxia” value is reported as “highest” and the “luciferase activity in normoxia” value is on record as “almost no luciferase activity”.

B5: Synp-FORCYB1: synthetic forskolin-inducible promoter, SEQ ID NO: 6; 5× cAMPRE and 4× AP1 TFBS and YB-TATA-MP (nucleic acid)
DNA: TGACGTCACGATTACCATTGACGTCACGATTACCATTGACGTCACGATTACCATTGACGTCACGATTACCATTGACGTCAGCGATTAAGATGACTCAGCGATTAAGATGACTCAGCGATTAAGATGACTCAGCGATTAAGATGACTCAGCGATTAATCCATATGCTCTAGAGGGTATATAATGGGGGCCACTAGTCTACTACCAGAAAGCTTGGTACCGAGCTCGGATCCAGCCACC
Consider B5, for which, in the data set on Huh7 (liver), the “luciferase activity after induction, promoter expressed from an AAV vector” value was “high activity” and the “luciferase activity without induction, promoter expressed from an AAV vector” value was “low background activity”.

B6: Synp-RTV-017: synthetic forskolin-inducible promoter, SEQ ID NO: 4; 8× AP1 TFBS and a CMV-MP (nucleic acid)
DNA: TGAGTCAGATGATGCGTAGCTAGTAGTTGAGTCAGATGATGCGTAGCTAGTAGTTGAGTCAGATGATGCGTAGCTAGTAGTTGAGTCAGATGATGCGTAGCTAGTAGTTGAGTCAGATGATGCGTAGCTAGTAGTTGAGTCAGATGATGCGTAGCTAGTAGTTGAGTCAGATGATGCGTAGCTAGTAGTTGAGTCAGTAGTCGTATGCTGATGCGCAGTTAGCGTAGCTGAGGTACCGTCGACGATATCGGATCCAGGTCTATATAAGCAGAGCTCGTTTAGTGAACCGTCAGATCGCCTAGATACGCCATCCACGCTGTTTTGACCTCCATAGAAGATCGCCACC
With B6, in the data set on Huh7 (liver), the “luciferase activity after induction, promoter expressed from an AAV vector” value is “high activity”; the “luciferase activity after induction” value is “high activity”; the “luciferase activity without induction, promoter expressed from an AAV vector” value was “low background activity”; the “luciferase activity without induction” value is reported as “low background activity”.

The values above are taken from patent US20230407327A1, “INDUCIBLE PROMOTER FOR VIRAL VECTOR PRODUCTION” (ASKLEPIOS BIOPHARMACEUTICAL, INC., priority 2020, published 2023).
